The text below walks through data of patent US20260049138A1 (Chugai, published 2026).

To fix the notation:
B1: CE115HA000 A56Q one-arm antibody (antibody, human IgG1, kappa, L234A L235A, N297A, name in Kabat numbering)
heavy: QVQLVESGGGVVQPGRSLRLSCAASGFTFSNAWMHWVRQAPGKGLEWVAQIKAKSNNYQTYYAESVKGRFTISRDDSKNSLYLQMNSLKTEDTAVYYCRYVHYGAYYGVDAWGQGTTVTVSSASTKGPSVFPLAPSSKSTSGGTAALGCLVKDYFPEPVTVSWNSGALTSGVHTFPAVLQSSGLYSLSSVVTVPSSSLGTQTYICNVNHKPSNTKVDKKVEPKSCDKTHTCPPCPAPEAAGGPSVFLFPPKPKDTLMISRTPEVTCVVVDVSHEDPEVKFNWYVDGVEVHNAKTKPREEQYASTYRVVSVLTVLHQDWLNGKEYKCKVSNKALPAPIEKTISKAKGQPREPQVYTLPPSRCELTKNQVSLSCAVKGFYPSDIAVEWESNGQPENNYKTTPPVLDSDGSFFLVSKLTVDKSRWQQGNVFSCSVMHEALHNHYTQKSLSLSPDYKDDDDK
chain: EPKSSDKTHTCPPCPAPELLGGPSVFLFPPKPKDTLMISRTPEVTCVVVDVSHEDPEVKFNWYVDGVEVHNAKTKPREEQYNSTYRVVSVLTVLHQDWLNGKEYKCKVSNKALPAPIEKTISKAKGQPREPQVCTLPPSRDELTKNQVSLWCLVKGFYPSDIAVEWESNGQPENNYKTTPPVLDSDGSFFLYSKLTVDKSRWQQGNVFSCSVMHEALHNRYTQKSLSLSP
light: DIVMTQSPLSLPVTPGEPASISCRSSQSLVHSNRNTYLHWYQQKPGQAPRLLIYKVSNRFSGVPDRFSGSGSGTDFTLKISRVEAEDVGVYYCGQGTQVPYTFGQGTKLEIKRTVAAPSVFIFPPSDEQLKSGTASVVCLLNNFYPREAKVQWKVDNALQSGNSQESVTEQDSKDSTYSLSSTLTLSKADYEKHKVYACEVTHQGLSSPVTKSFNRGEC
B2: CE115HA000 A60E one-arm antibody (antibody, human IgG1, kappa, L234A L235A, N297A, name in Kabat numbering)
heavy: QVQLVESGGGVVQPGRSLRLSCAASGFTFSNAWMHWVRQAPGKGLEWVAQIKAKSNNYATYYEESVKGRFTISRDDSKNSLYLQMNSLKTEDTAVYYCRYVHYGAYYGVDAWGQGTTVTVSSASTKGPSVFPLAPSSKSTSGGTAALGCLVKDYFPEPVTVSWNSGALTSGVHTFPAVLQSSGLYSLSSVVTVPSSSLGTQTYICNVNHKPSNTKVDKKVEPKSCDKTHTCPPCPAPEAAGGPSVFLFPPKPKDTLMISRTPEVTCVVVDVSHEDPEVKFNWYVDGVEVHNAKTKPREEQYASTYRVVSVLTVLHQDWLNGKEYKCKVSNKALPAPIEKTISKAKGQPREPQVYTLPPSRCELTKNQVSLSCAVKGFYPSDIAVEWESNGQPENNYKTTPPVLDSDGSFFLVSKLTVDKSRWQQGNVFSCSVMHEALHNHYTQKSLSLSPDYKDDDDK
chain: EPKSSDKTHTCPPCPAPELLGGPSVFLFPPKPKDTLMISRTPEVTCVVVDVSHEDPEVKFNWYVDGVEVHNAKTKPREEQYNSTYRVVSVLTVLHQDWLNGKEYKCKVSNKALPAPIEKTISKAKGQPREPQVCTLPPSRDELTKNQVSLWCLVKGFYPSDIAVEWESNGQPENNYKTTPPVLDSDGSFFLYSKLTVDKSRWQQGNVFSCSVMHEALHNRYTQKSLSLSP
light: DIVMTQSPLSLPVTPGEPASISCRSSQSLVHSNRNTYLHWYQQKPGQAPRLLIYKVSNRFSGVPDRFSGSGSGTDFTLKISRVEAEDVGVYYCGQGTQVPYTFGQGTKLEIKRTVAAPSVFIFPPSDEQLKSGTASVVCLLNNFYPREAKVQWKVDNALQSGNSQESVTEQDSKDSTYSLSSTLTLSKADYEKHKVYACEVTHQGLSSPVTKSFNRGEC
B3: CE115HA000 A99F one-arm antibody (antibody, human IgG1, kappa, L234A L235A, N297A, name in Kabat numbering)
heavy: QVQLVESGGGVVQPGRSLRLSCAASGFTFSNAWMHWVRQAPGKGLEWVAQIKAKSNNYATYYAESVKGRFTISRDDSKNSLYLQMNSLKTEDTAVYYCRYVHYGFYYGVDAWGQGTTVTVSSASTKGPSVFPLAPSSKSTSGGTAALGCLVKDYFPEPVTVSWNSGALTSGVHTFPAVLQSSGLYSLSSVVTVPSSSLGTQTYICNVNHKPSNTKVDKKVEPKSCDKTHTCPPCPAPEAAGGPSVFLFPPKPKDTLMISRTPEVTCVVVDVSHEDPEVKFNWYVDGVEVHNAKTKPREEQYASTYRVVSVLTVLHQDWLNGKEYKCKVSNKALPAPIEKTISKAKGQPREPQVYTLPPSRCELTKNQVSLSCAVKGFYPSDIAVEWESNGQPENNYKTTPPVLDSDGSFFLVSKLTVDKSRWQQGNVFSCSVMHEALHNHYTQKSLSLSPDYKDDDDK
chain: EPKSSDKTHTCPPCPAPELLGGPSVFLFPPKPKDTLMISRTPEVTCVVVDVSHEDPEVKFNWYVDGVEVHNAKTKPREEQYNSTYRVVSVLTVLHQDWLNGKEYKCKVSNKALPAPIEKTISKAKGQPREPQVCTLPPSRDELTKNQVSLWCLVKGFYPSDIAVEWESNGQPENNYKTTPPVLDSDGSFFLYSKLTVDKSRWQQGNVFSCSVMHEALHNRYTQKSLSLSP
light: DIVMTQSPLSLPVTPGEPASISCRSSQSLVHSNRNTYLHWYQQKPGQAPRLLIYKVSNRFSGVPDRFSGSGSGTDFTLKISRVEAEDVGVYYCGQGTQVPYTFGQGTKLEIKRTVAAPSVFIFPPSDEQLKSGTASVVCLLNNFYPREAKVQWKVDNALQSGNSQESVTEQDSKDSTYSLSSTLTLSKADYEKHKVYACEVTHQGLSSPVTKSFNRGEC
B4: CE115HA000 A99D one-arm antibody (antibody, human IgG1, kappa, L234A L235A, N297A, name in Kabat numbering)
heavy: QVQLVESGGGVVQPGRSLRLSCAASGFTFSNAWMHWVRQAPGKGLEWVAQIKAKSNNYATYYAESVKGRFTISRDDSKNSLYLQMNSLKTEDTAVYYCRYVHYGDYYGVDAWGQGTTVTVSSASTKGPSVFPLAPSSKSTSGGTAALGCLVKDYFPEPVTVSWNSGALTSGVHTFPAVLQSSGLYSLSSVVTVPSSSLGTQTYICNVNHKPSNTKVDKKVEPKSCDKTHTCPPCPAPEAAGGPSVFLFPPKPKDTLMISRTPEVTCVVVDVSHEDPEVKFNWYVDGVEVHNAKTKPREEQYASTYRVVSVLTVLHQDWLNGKEYKCKVSNKALPAPIEKTISKAKGQPREPQVYTLPPSRCELTKNQVSLSCAVKGFYPSDIAVEWESNGQPENNYKTTPPVLDSDGSFFLVSKLTVDKSRWQQGNVFSCSVMHEALHNHYTQKSLSLSPDYKDDDDK
chain: EPKSSDKTHTCPPCPAPELLGGPSVFLFPPKPKDTLMISRTPEVTCVVVDVSHEDPEVKFNWYVDGVEVHNAKTKPREEQYNSTYRVVSVLTVLHQDWLNGKEYKCKVSNKALPAPIEKTISKAKGQPREPQVCTLPPSRDELTKNQVSLWCLVKGFYPSDIAVEWESNGQPENNYKTTPPVLDSDGSFFLYSKLTVDKSRWQQGNVFSCSVMHEALHNRYTQKSLSLSP
light: DIVMTQSPLSLPVTPGEPASISCRSSQSLVHSNRNTYLHWYQQKPGQAPRLLIYKVSNRFSGVPDRFSGSGSGTDFTLKISRVEAEDVGVYYCGQGTQVPYTFGQGTKLEIKRTVAAPSVFIFPPSDEQLKSGTASVVCLLNNFYPREAKVQWKVDNALQSGNSQESVTEQDSKDSTYSLSSTLTLSKADYEKHKVYACEVTHQGLSSPVTKSFNRGEC
B5: CE115HA000 A60D one-arm antibody (antibody, human IgG1, kappa, L234A L235A, N297A, name in Kabat numbering)
heavy: QVQLVESGGGVVQPGRSLRLSCAASGFTFSNAWMHWVRQAPGKGLEWVAQIKAKSNNYATYYDESVKGRFTISRDDSKNSLYLQMNSLKTEDTAVYYCRYVHYGAYYGVDAWGQGTTVTVSSASTKGPSVFPLAPSSKSTSGGTAALGCLVKDYFPEPVTVSWNSGALTSGVHTFPAVLQSSGLYSLSSVVTVPSSSLGTQTYICNVNHKPSNTKVDKKVEPKSCDKTHTCPPCPAPEAAGGPSVFLFPPKPKDTLMISRTPEVTCVVVDVSHEDPEVKFNWYVDGVEVHNAKTKPREEQYASTYRVVSVLTVLHQDWLNGKEYKCKVSNKALPAPIEKTISKAKGQPREPQVYTLPPSRCELTKNQVSLSCAVKGFYPSDIAVEWESNGQPENNYKTTPPVLDSDGSFFLVSKLTVDKSRWQQGNVFSCSVMHEALHNHYTQKSLSLSPDYKDDDDK
chain: EPKSSDKTHTCPPCPAPELLGGPSVFLFPPKPKDTLMISRTPEVTCVVVDVSHEDPEVKFNWYVDGVEVHNAKTKPREEQYNSTYRVVSVLTVLHQDWLNGKEYKCKVSNKALPAPIEKTISKAKGQPREPQVCTLPPSRDELTKNQVSLWCLVKGFYPSDIAVEWESNGQPENNYKTTPPVLDSDGSFFLYSKLTVDKSRWQQGNVFSCSVMHEALHNRYTQKSLSLSP
light: DIVMTQSPLSLPVTPGEPASISCRSSQSLVHSNRNTYLHWYQQKPGQAPRLLIYKVSNRFSGVPDRFSGSGSGTDFTLKISRVEAEDVGVYYCGQGTQVPYTFGQGTKLEIKRTVAAPSVFIFPPSDEQLKSGTASVVCLLNNFYPREAKVQWKVDNALQSGNSQESVTEQDSKDSTYSLSSTLTLSKADYEKHKVYACEVTHQGLSSPVTKSFNRGEC
B6: CE115HA000 A56Y one-arm antibody (antibody, human IgG1, kappa, L234A L235A, N297A, name in Kabat numbering)
heavy: QVQLVESGGGVVQPGRSLRLSCAASGFTFSNAWMHWVRQAPGKGLEWVAQIKAKSNNYYTYYAESVKGRFTISRDDSKNSLYLQMNSLKTEDTAVYYCRYVHYGAYYGVDAWGQGTTVTVSSASTKGPSVFPLAPSSKSTSGGTAALGCLVKDYFPEPVTVSWNSGALTSGVHTFPAVLQSSGLYSLSSVVTVPSSSLGTQTYICNVNHKPSNTKVDKKVEPKSCDKTHTCPPCPAPEAAGGPSVFLFPPKPKDTLMISRTPEVTCVVVDVSHEDPEVKFNWYVDGVEVHNAKTKPREEQYASTYRVVSVLTVLHQDWLNGKEYKCKVSNKALPAPIEKTISKAKGQPREPQVYTLPPSRCELTKNQVSLSCAVKGFYPSDIAVEWESNGQPENNYKTTPPVLDSDGSFFLVSKLTVDKSRWQQGNVFSCSVMHEALHNHYTQKSLSLSPDYKDDDDK
chain: EPKSSDKTHTCPPCPAPELLGGPSVFLFPPKPKDTLMISRTPEVTCVVVDVSHEDPEVKFNWYVDGVEVHNAKTKPREEQYNSTYRVVSVLTVLHQDWLNGKEYKCKVSNKALPAPIEKTISKAKGQPREPQVCTLPPSRDELTKNQVSLWCLVKGFYPSDIAVEWESNGQPENNYKTTPPVLDSDGSFFLYSKLTVDKSRWQQGNVFSCSVMHEALHNRYTQKSLSLSP
light: DIVMTQSPLSLPVTPGEPASISCRSSQSLVHSNRNTYLHWYQQKPGQAPRLLIYKVSNRFSGVPDRFSGSGSGTDFTLKISRVEAEDVGVYYCGQGTQVPYTFGQGTKLEIKRTVAAPSVFIFPPSDEQLKSGTASVVCLLNNFYPREAKVQWKVDNALQSGNSQESVTEQDSKDSTYSLSSTLTLSKADYEKHKVYACEVTHQGLSSPVTKSFNRGEC

T1 sequence (P07766 23-126 limits assumed): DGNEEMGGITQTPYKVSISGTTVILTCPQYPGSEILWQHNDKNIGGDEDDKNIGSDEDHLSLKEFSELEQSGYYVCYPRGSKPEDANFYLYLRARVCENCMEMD

This test concerns the target T1, CD3ε homodimer protein (human, UniProt P07766 23-126, limits assumed, sulfo-tag or biotin label in the ECL assays; amine-coupled to the chip in SPR).
T1 construct: also called human CD3ε homodimer protein; CD3 (CD3ε)
As to the kind of experiment: SPR Biacore T200; CD3ε homodimer on CM4 chip.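 Further: Single-residue variant antibodies injected as analyte over CD3ε homodimer immobilized by amine coupling, run at 25 °C in HBS-EP+ buffer.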
Experimental: An appropriate amount of CD3ε homodimer protein was immobilized onto Sensor chip CM4 (GE Healthcare Japan Corp.) by the amine coupling method. Then, the antibody having an appropriate concentration was injected thereto as an analyte and allowed to interact with the CD3ε homodimer protein on the sensor chip. Then, the sensor chip was regenerated by the injection of 10 mmol/L glycine-HCl (pH 1.5). The assay was conducted at 25° C., and HBS-EP+ (GE Healthcare Japan Corp.) was used as a running buffer. […] Each parameter was calculated using Biacore T200 Evaluation Software (GE Healthcare Japan Corp.).
Consider B1, for which the “ratio of amounts bound Z=Y/X (altered form / CE115HA000)” value was determined as 0.76.

Take B2: the “ratio of amounts bound Z=Y/X (altered form / CE115HA000)” value came to 0.94.

In the case of B3, the “ratio of amounts bound Z=Y/X (altered form / CE115HA000)” value was 1.43.

B4: the “ratio of amounts bound Z=Y/X (altered form / CE115HA000)” value amounted to 0.28.

Consider B5, for which the “ratio of amounts bound Z=Y/X (altered form / CE115HA000)” value is 0.99.

As to B6, the “ratio of amounts bound Z=Y/X (altered form / CE115HA000)” value is 0.66.
